Among the data in publication PMC8262862 (2021) are Kd values, retold here.

Common to all, as to experiment: ELISA
The target in assay [1] is H10 HA.
The target in assay [2] is H1 HA.
Assay [3] concerns the target B-Phuket HA.
Assay [4] has as its target H4 HA.
The target in assay [5] is H14 HA.
In assay [6] the target is H13 HA.
The target of assay [7] is H7 HA.
For assay [8], the target named is H3 HA.
The target of assay [9] is H8 HA.
The target of assay [10] is H6 HA.
In assay [11] the target is H2 HA.
Assay [12] has as its target H9 HA.
Assay [13] concerns the target H5 HA.

What is called Kd is the free concentration of one partner at which half of the binding sites on the other are occupied at equilibrium, for simple one-to-one binding. Read a high Kd as a looser complex.

B1: S1V2-51 IgG (antibody, V domains shown)
VH: QVQLVESGGGVVQPGRSLRLSCVASGFTFRDSVMHWVRQAPGKGLEWVAVTSFDGGESYSADSVKGRFTISRDNSKSTLSLQMNILRPEDTGVYYCARDRGGLDVWGQGTTVTVSG
VL: DIVMTQSPESLAVSLGERATINCKSSQSVSFGSSDKNYLGWYQQKPGQPPKLLINWASTRESGVSDRFRGTGSGTDFTLTISSLQAEDAAVYYCHQYYTPPYSFGQGTKLEIK
For the molecule B1, the Kd in assay [1] was 0.42 nM; in assay [2], > 100 nM; in assay [3], > 100 nM; in assay [4], 0.21 nM; in assay [5], > 100 nM; in assay [6], > 100 nM. The Kd is 0.21 nM in [7]; 0.26 nM in [8]; 0.41 nM in assay [9]; 84 nM in assay [10]; > 100 nM in assay [11]; 0.21 nM in assay [12]. Moreover, the Kd in assay [13] was > 100 nM.
